Square brackets hold non-standard residues; d marks the D form. Peptide text beside a SMILES is read from it. * marks the point of attachment. X3 = O=C(CCCCCNCc1nc2c(sc3cc(Br)cnc32)c(=O)[nH]1)*
Legend:
Test in all cases: Kinase profiling (radiometric filter-binding)
Format in all cases: biochemical
BTK = BTK (Homo sapiens, UniProt Q06187); details: 1 µM inhibitor, read-out: Residual activity, %
Outline: (§1)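 Each compound, at 1 µM final, is screened against human protein kinases in a radiometric filter-binding format. ATP is set at or under the KM of each kinase. Values give retained activity relative to a control lacking inhibitor.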

PKD1 = target: T1, PKD1 (Homo sapiens, UniProt Q15139); details: PKD1, 1 µM inhibitor; read-out: Residual activity, %
T1 sequence (Q15139 1-912): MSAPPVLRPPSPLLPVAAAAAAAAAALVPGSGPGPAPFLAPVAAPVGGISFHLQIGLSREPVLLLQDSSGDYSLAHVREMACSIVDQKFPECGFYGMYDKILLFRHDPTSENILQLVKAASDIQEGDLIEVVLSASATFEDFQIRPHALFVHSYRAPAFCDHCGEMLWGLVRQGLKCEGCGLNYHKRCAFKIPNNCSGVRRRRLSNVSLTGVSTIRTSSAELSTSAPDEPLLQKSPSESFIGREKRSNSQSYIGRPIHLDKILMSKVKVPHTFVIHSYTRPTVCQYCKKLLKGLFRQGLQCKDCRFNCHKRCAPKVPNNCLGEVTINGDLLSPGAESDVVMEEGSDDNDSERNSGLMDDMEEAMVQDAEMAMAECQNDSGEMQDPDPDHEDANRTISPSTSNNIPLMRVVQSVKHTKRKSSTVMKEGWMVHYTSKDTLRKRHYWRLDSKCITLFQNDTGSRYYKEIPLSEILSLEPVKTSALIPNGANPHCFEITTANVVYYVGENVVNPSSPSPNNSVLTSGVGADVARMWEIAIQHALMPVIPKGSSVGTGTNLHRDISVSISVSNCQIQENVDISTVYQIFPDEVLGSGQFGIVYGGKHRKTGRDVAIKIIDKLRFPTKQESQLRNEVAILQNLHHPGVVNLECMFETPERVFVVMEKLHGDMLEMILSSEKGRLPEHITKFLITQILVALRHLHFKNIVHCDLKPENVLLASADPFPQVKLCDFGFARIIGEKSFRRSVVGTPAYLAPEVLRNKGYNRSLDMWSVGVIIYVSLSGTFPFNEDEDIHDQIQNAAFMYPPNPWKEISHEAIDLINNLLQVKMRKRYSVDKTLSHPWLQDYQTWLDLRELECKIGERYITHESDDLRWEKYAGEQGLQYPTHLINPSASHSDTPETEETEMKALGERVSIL
Outline: as §1

ASK1 = target: T2, ASK1 (Homo sapiens, UniProt Q99683); details: ASK1, 1 µM inhibitor; read-out: Residual activity, %
T2 sequence (Q99683 1-1374): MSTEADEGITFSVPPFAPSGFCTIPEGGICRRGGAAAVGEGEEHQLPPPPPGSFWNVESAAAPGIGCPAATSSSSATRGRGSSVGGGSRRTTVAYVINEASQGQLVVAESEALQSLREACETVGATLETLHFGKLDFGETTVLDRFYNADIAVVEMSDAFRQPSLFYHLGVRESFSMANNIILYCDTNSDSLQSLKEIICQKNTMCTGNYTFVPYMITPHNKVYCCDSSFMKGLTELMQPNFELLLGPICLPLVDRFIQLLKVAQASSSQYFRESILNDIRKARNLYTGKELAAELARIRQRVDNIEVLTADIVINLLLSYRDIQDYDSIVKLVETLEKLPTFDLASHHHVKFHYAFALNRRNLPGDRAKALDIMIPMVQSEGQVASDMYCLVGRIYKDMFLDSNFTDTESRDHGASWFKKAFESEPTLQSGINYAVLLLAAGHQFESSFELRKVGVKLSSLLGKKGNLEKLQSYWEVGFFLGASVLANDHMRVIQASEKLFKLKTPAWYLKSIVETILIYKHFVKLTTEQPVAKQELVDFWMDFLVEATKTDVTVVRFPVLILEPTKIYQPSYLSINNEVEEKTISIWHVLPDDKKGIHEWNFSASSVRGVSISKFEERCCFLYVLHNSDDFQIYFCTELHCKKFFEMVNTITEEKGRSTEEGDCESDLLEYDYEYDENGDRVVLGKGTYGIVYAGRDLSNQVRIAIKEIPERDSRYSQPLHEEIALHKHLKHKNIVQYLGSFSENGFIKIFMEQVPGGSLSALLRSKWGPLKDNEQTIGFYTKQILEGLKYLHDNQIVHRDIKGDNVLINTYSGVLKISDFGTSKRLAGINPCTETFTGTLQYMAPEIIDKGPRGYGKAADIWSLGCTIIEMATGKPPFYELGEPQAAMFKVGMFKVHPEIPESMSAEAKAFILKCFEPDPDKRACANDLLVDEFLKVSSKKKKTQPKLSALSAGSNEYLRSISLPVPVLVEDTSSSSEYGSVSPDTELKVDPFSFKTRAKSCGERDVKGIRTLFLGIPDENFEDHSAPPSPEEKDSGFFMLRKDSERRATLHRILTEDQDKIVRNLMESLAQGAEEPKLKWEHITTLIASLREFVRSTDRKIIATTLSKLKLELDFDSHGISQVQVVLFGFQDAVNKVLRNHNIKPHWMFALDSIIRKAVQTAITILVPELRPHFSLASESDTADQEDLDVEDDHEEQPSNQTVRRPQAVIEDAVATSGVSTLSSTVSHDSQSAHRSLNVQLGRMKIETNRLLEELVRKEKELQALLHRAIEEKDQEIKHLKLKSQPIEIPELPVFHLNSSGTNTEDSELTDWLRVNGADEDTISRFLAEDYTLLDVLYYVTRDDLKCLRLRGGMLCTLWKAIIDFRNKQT
Outline: as §1

CDK2-Cyclin A = CDK2-Cyclin A (Homo sapiens, UniProt P24941); details: 1 µM inhibitor, read-out: Residual activity, %
Outline: as §1

MSK1 = MSK1 (Homo sapiens, UniProt O75582); details: MSK1, 1 µM inhibitor; read-out: Residual activity, %
MSK1, sequence (O75582 whole entry): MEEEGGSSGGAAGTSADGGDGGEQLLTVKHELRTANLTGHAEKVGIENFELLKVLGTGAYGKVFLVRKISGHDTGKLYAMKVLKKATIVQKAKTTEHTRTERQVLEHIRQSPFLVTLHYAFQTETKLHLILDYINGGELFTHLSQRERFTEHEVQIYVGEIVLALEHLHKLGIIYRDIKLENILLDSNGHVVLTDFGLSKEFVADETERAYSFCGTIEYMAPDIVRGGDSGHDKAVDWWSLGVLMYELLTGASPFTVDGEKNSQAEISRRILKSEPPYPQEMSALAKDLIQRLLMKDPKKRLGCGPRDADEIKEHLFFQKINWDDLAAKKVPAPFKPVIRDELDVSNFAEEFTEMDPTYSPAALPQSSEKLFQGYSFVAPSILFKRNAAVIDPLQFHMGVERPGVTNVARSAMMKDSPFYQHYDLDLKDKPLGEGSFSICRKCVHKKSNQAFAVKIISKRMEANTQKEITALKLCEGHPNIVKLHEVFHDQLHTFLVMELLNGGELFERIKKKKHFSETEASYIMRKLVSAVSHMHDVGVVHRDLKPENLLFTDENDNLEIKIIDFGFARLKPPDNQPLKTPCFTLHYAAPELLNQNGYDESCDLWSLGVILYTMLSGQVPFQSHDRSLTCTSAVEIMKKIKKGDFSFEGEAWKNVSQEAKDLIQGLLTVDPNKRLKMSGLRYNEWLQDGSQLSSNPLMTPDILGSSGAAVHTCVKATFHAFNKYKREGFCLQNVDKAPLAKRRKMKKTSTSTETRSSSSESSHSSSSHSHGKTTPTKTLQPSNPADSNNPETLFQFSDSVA
Outline: as §1

IR = IR (Homo sapiens, UniProt P06213); details: 1 µM inhibitor, read-out: Residual activity, %
IR, sequence (P06213 28-1382): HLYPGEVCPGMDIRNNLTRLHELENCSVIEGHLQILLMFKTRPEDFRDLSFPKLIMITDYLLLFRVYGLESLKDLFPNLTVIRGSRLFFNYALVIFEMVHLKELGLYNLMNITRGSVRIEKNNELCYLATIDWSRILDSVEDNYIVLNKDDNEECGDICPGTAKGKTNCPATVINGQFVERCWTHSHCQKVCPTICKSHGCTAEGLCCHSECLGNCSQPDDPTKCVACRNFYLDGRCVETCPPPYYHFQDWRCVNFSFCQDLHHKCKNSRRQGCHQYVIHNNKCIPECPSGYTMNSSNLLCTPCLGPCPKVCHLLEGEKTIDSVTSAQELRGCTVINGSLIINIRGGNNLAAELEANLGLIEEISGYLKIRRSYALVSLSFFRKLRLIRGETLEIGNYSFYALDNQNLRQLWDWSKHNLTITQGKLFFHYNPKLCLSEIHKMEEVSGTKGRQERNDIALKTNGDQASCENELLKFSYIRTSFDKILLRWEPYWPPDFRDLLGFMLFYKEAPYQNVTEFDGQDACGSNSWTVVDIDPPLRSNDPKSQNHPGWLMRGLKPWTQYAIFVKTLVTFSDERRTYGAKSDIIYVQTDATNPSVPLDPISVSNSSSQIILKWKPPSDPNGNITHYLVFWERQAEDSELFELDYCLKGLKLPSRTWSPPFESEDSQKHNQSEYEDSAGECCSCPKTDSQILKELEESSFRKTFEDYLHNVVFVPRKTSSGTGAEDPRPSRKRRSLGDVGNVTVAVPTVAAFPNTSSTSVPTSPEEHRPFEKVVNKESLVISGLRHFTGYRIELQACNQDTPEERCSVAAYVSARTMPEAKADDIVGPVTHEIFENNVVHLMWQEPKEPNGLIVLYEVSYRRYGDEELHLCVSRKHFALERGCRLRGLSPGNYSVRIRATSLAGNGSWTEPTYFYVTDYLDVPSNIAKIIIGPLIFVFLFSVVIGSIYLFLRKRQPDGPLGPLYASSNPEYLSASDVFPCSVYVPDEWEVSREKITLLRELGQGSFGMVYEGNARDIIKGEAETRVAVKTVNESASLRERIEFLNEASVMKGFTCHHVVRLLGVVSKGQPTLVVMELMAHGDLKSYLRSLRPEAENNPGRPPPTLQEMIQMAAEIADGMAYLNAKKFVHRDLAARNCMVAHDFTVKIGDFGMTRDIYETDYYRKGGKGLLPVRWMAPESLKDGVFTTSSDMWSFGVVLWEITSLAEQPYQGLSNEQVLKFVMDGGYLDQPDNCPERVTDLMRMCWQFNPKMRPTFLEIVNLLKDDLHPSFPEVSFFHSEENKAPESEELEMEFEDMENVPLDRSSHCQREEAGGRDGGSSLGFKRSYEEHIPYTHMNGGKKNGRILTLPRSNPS
Outline: as §1

CLK2 = CLK2 (Homo sapiens, UniProt P49760); details: CLK2, 1 µM inhibitor; read-out: Residual activity, %
CLK2, sequence (P49760 whole entry): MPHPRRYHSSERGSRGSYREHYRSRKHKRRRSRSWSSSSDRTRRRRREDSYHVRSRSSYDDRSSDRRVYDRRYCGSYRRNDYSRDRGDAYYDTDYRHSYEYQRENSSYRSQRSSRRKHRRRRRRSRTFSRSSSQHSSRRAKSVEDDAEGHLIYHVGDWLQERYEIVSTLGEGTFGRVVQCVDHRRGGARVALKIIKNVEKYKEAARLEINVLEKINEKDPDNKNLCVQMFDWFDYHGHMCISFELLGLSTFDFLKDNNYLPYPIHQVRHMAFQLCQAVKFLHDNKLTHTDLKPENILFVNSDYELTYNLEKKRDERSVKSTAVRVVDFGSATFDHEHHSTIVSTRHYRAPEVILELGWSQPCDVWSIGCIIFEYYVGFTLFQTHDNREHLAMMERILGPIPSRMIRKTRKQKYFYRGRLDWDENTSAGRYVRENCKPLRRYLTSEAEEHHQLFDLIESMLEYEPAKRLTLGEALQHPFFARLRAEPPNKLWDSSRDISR
Outline: as §1

CAMKKb = CAMKKb (Homo sapiens, UniProt Q96RR4); details: 1 µM inhibitor, read-out: Residual activity, %
CAMKKb, sequence (Q96RR4 whole entry): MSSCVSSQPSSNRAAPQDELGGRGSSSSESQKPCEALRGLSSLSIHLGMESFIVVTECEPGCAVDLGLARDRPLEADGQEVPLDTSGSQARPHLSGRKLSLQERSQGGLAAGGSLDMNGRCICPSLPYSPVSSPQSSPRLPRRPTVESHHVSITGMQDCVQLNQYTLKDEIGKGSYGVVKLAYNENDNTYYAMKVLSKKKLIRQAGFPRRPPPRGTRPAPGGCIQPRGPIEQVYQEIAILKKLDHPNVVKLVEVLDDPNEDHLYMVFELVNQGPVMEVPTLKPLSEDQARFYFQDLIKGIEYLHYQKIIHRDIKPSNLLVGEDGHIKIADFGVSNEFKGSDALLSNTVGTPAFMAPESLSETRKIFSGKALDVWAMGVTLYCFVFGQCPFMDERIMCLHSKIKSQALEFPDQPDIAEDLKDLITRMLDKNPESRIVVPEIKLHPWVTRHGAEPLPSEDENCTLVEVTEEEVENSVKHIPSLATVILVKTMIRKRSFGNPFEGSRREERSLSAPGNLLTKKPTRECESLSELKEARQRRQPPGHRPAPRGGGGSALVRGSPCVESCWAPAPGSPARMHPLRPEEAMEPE
Outline: as §1

PIM2 = PIM2 (Homo sapiens, UniProt Q9P1W9); details: PIM2, 1 µM inhibitor; read-out: Residual activity, %
PIM2, sequence (Q9P1W9 whole entry): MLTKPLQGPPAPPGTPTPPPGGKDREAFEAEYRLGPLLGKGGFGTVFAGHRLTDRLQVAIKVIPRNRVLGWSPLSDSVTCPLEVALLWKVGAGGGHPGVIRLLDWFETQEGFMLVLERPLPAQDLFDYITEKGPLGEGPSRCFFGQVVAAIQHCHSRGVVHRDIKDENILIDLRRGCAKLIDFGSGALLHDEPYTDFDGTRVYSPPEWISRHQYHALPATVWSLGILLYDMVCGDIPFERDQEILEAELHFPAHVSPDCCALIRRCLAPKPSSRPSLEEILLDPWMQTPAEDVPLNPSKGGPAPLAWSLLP
Outline: as §1

BTK, sequence (Q06187 whole entry): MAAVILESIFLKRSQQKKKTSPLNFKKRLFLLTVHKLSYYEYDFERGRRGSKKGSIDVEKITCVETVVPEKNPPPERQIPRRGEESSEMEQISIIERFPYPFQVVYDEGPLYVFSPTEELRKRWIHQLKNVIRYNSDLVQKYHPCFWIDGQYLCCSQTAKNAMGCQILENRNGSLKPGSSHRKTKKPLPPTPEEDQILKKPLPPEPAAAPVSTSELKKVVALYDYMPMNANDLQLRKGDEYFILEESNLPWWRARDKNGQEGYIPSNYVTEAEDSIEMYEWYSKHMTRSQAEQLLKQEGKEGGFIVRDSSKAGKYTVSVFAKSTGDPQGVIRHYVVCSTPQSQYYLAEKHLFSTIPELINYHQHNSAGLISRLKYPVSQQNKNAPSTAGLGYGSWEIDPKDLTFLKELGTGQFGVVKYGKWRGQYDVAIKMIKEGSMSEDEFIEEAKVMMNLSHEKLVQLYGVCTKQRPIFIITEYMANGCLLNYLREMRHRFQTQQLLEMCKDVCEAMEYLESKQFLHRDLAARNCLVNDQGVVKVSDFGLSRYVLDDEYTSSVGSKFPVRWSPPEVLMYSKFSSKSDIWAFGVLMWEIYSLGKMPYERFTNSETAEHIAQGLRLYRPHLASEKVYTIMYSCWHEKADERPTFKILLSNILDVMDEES

Row | Structure (SMILES) | remaining activity at 1 µM (BTK) [%] | remaining activity at 1 µM (PKD1) [%] | remaining activity at 1 µM (ASK1) [%] | remaining activity at 1 µM (CDK2-Cyclin A) [%] | remaining activity at 1 µM (MSK1) [%] | remaining activity at 1 µM (IR) [%] | remaining activity at 1 µM (CLK2) [%] | remaining activity at 1 µM (CAMKKb) [%] | remaining activity at 1 µM (PIM2) [%]
1 | N=C(N)NCCC[C@@H](NC(=O)CCCCCNC(=O)Cn1cnc2c(I)c(I)c(I)c(I)c21)C(=O)N[C@H](CCCNC(=N)N)C(=O)N[C@H](CCCNC(=N)N)C(=O)N[C@H](CCCNC(=N)N)C(=O)N[C@H](CCCNC(=N)N)C(=O)N[C@H](CCCNC(=N)N)C(=O)N[C@H](CCCCN)C(N)=O [ARC-3125, TIBI-CH2-C(=O)-Ahx-(D-Arg)6-D-Lys-NH2] | 31 ± 2 | 18 ± 4 | 93 | 17 ± 1 | 6 ± 8 | 22 ± 6 | -1 ± 5 | 47 ± 1 | 0
2 | N=C(N)NCCC[C@@H](NC(=O)CCCCCNCc1nc2c(sc3cc(Br)cnc32)c(=O)[nH]1)C(=O)N[C@H](CCCNC(=N)N)C(=O)N[C@H](CCCNC(=N)N)C(=O)N[C@H](CCCNC(=N)N)C(=O)N[C@H](CCCNC(=N)N)C(=O)N[C@H](CCCNC(=N)N)C(=O)N[C@H](CCCCN)C(N)=O [ARC-3126, BPTP-Ahx-(D-Arg)6-D-Lys-NH2] (X3-[dR][dR][dR][dR][dR][dR][dK]-NH2) | 43 ± 2 | 111 ± 10 | 121 ± 11 | 106 ± 5 | 29 ± 1 | 117 ± 6 | 57 ± 15 | 104 ± 13 | 10
3 | N=C(N)NCCC[C@@H](NC(=O)CNC(=O)[C@@H](CCCNC(=N)N)NC(=O)[C@@H](CCCNC(=N)N)NC(=O)CCCCCCCNCc1nc2c(sc3cc(Br)cnc32)c(=O)[nH]1)C(=O)N[C@H](CCCCN)C(N)=O [Compound 1, BPTP-Aoc-(D-Arg)2-Gly-D-Arg-D-Lys-NH2] | 106 ± 10 | 128 ± 13 | 99 | 106 ± 12 | 106 ± 13 | 122 ± 7 | 97 | 117 ± 1 | 72
4 | N=C(N)NCCC[C@@H](NC(=O)CNC(=O)[C@@H](CCCNC(=N)N)NC(=O)[C@@H](CCCNC(=N)N)NC(=O)CCCCCCCNCc1nc2c(sc3ccc(Br)cc32)c(=O)[nH]1)C(=O)N[C@H](CCCCN)C(N)=O [Compound 2, BBTP-Aoc-(D-Arg)2-Gly-D-Arg-D-Lys-NH2] | 99 ± 20 | 134 ± 14 | 102 ± 5 | 105 ± 9 | 53 ± 4 | 139 ± 35 | 24 | 108 ± 1 | 7 ± 1
5 | N=C(N)NCCC[C@@H](NC(=O)CNC(=O)[C@@H](CCCNC(=N)N)NC(=O)[C@@H](CCCNC(=N)N)NC(=O)Cn1cc(CNCc2nc3c(sc4ccc(Br)cc43)c(=O)[nH]2)nn1)C(=O)N[C@H](CCCCN)C(N)=O [Compound 3, BBTP-Amt-(D-Arg)2-Gly-D-Arg-D-Lys-NH2] | 82 ± 1 | 82 ± 3 | 101 ± 2 | 100 | 90 ± 2 | 113 ± 23 | 30 ± 1 | 85 ± 4 | 15 ± 1

— PMC8307404, “Crystal Structure-Guided Design of Bisubstrate Inhibitors and Photoluminescent Probes for Protein Kinases of the PIM Family” (Molecules, 2021)
